One protein from article PMC8996150, “The structure of Synechococcus elongatus enolase reveals key aspects of phosphoenolpyruvate binding” (Acta Crystallographica. Section F, Structural Biology …, 2022) can be followed below.

Substrate in the data set: O=C(O)[C@@H](CO)OP(=O)(O)O
The experiment in a line: purified protein. Format: biochemical, Synechococcus elongatus. Conditions: 100 mM HEPES pH 8.0, 100 mM KCl, 1.0 mM MgCl2, 30°C, dehydration direction.

B1: SeEN (Synechococcus elongatus enolase) (Synechococcus elongatus PCC 7942 = FACHB-805) (protein)
chain: MPDDYGTQIAEITAREILDSRGRPTVEAEVHLEDGSVGLAQVPSGASTGTFEAHELRDDDPSRYGGKGVQKAVENVSAIEDALIGLSALDQEGLDKAMIALDGTPNKKNLGANAILAVSLATAHAAATSLNLPLYRYLGGPLANVLPVPMMNVINGGAHADNNVDFQEFMIMPVGAPSFKEALRWGAEVFHALAKVLKDKGLATGVGDEGGFAPNLGSNKEALELLLTAIEAAGYKPGEQVALAMDVASSEFYKNGLYTCDGVSHEPAGMIGILADLVSQYPIVSIEDGLQEDDWSNWKTLTQQLGSTVQLVGDDLFVTNPDRLQSGIEQGVGNAVLIKLNQIGTLTETLRTIDLATRSGYRSVISHRSGETEDTTIADLAVATRAGQIKTGSLSRSERIAKYNRLLRIEAALGENALYAGAIGLGPKGR
notes: full length, synthetic codon-optimized gene in pET-42a(+), C-terminal … (8xHis) tag kept, E. coli Arctic Express (DE3); mainly monomer in gel filtration, dimer in PEP crystal, octamer predicted
For B1, the Michaelis-Menten constant (Km) is 61 ± 4 µM, the kcat is 7.4 ± 0.1 s⁻¹ and the kcat/Km amounted to 120000 M⁻¹ s⁻¹.
